# Experimental data: IntAct's records for PubMed 19379692
# B1: SET domain-containing protein 3 (Saccharomyces cerevisiae), P36124 (parent)
# chain: MSVPNSKEQSLLDDASTLLLFSKGKKRAEEASKIGSKTDTIEHDESHEREKKGAIEMAAAALATASTVSLPLKKATEQSAAEAATSTAAKEETENQPQKQPQWPVPDSYIVDPDAGIITCICDLNDDDGFTIQCDHCNRWQHAICYGIKDIGMAPDDYLCNSCDPREVDINLARKIQQERINVKTVEPSSSNNSASNKNNGRDRASSTTISDVGDSFSTDQDNTNHRDKRRKRNPSNNSIDSKNESASVNSSDGLTSMPKKKEHFLSAKDAYGAIYLPLKDNVFKSDLIEPFLNKHMDDNWVIQYPHKTFKSVSIEVKPYADIAYSRTYPGFTKLGVYLKKDCIKGDFIQEILGELDFYKNYLTDPRNHYRIWGTAKRRVIFHSHWPIYIDARLSGNSTRYLRRSCQPNVELVTIKLQDTDNRNDKSSGRKSSRIKFVLRALRDISEDEELYIKWQWDSKHPILKLIKGMTIDSLDDLERYGLINSVETILSNGECGCGNNSKDCYLLKVKRYAQSLYKSVKSRGKMNNRYKLNEILNQYNCKKRREPPILHRLEEKAQNTIERAPILLNNFYRQKFLNRNNGPKIPQKNTIDSTNNPDDIAKPFKFALFAQHSSNISVPKKNETSEKPLIITKSTDYDESHITNIEELPIPVLLPINKTSRQTANDVEESQSKNEHKLSRTPSLSNFNKELSKEAQHSQAKTKEIMTEASVNSRRESTPESIMHLSDFSSSQLHSKKKLSFADYRKKLLK
# Variants of: B1
# Details: with h4_yeast HHF1, P02309
row,Variant,effect of a mutation on the interaction
1,W140A,decreasing interaction
